# The supplement of paper PMC7877785
# ± gives the uncertainty stated by the source.
# Assay: self-splicing fitness, log relative to wild type (ln ratio); higher = more splicing; Tetrahymena group I intron in knt gene, E. coli kanamycin selection, DiMSum; sequences stand for … in CUCUCU…GGAGGGAAAAGUUAUCAGGCAUGCACCUGGUAGCUAGUCUUUAAACCAAUAGAUUGCAUCGGUUUAAAAGGCAAGACCGUCAAAUUGCGGGAAAGGGGUCAACAGCCGUUCAGUACCAAGUCUCAGGGGAAACUUUGAGAUGGCCUUGCAAAGGGUAUGGUAAUAAGCUGACGGACAUGGUCCUAACCACGCAGCCAAGUCCUAAGUCAACAGAUCUUCUGUUGAUAUGGAUGCAGUUCACAGACUAAAUGUCGGUCGGGGAAGAUGUAUUCUUCUCAUAAGAUAUAGUCGGACCUCUCCUUAAUGGGAGCUAGCGGAUGAAGUGAUGCAACACUGGAGCCGCUGGGAACUAAUUUGUAUGCGAAAGUAUAUUGAUUAGUUUUGGAGUACUCGUGGUCG
# Method in brief: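 Six replicate transformations of E. coli BL21(DE3) with a pET-22b(+) library were grown overnight at 37°C or 30°C. The library randomised all eight P1ex-region intron nucleotides, the intron lying in the knt kanamycin-resistance gene, and plates were LB agar with or without 25 μg/mL kanamycin plus 100 μg/mL carbenicillin, 50 μM IPTG and 0.2% rhamnose. Pooled colonies were amplicon-sequenced on an Illumina HiSeq 2500, and fitness is the DiMSum error-weighted combination of wild-type-normalised replicate fold changes, kanamycin versus none.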
Sequence,self-splicing fitness (ln) (30 °C),self-splicing fitness (ln) (37 °C)
CCGUAGCAAUAUUACGACCU,-0.833 ± 0.34,–
GUAUAGCAAUAUUACGAAGU,-3.25 ± 0.21,-1.81 ± 0.18
ACCUAGCAAUAUUACGAAAC,-2.68 ± 0.15,-2.31 ± 0.19
GAGAAGCAAUAUUACGGGAG,-2.12 ± 0.13,-1.63 ± 0.18
CCUAAGCAAUAUUACGGGCA,-3.62 ± 0.25,-2.85 ± 0.24
ACGGAGCAAUAUUACGAUGA,-2.56 ± 0.12,-2.57 ± 0.19
GGUAAGCAAUAUUACGGCCU,-2.34 ± 0.33,–
CAUGAGCAAUAUUACGAUAA,-3.72 ± 0.35,-1.97 ± 0.3
CGUCAGCAAUAUUACGAUGU,-1.73 ± 0.11,-1.53 ± 0.098
GAAGAGCAAUAUUACGAUGA,-3.03 ± 0.31,-1.57 ± 0.17
CUUUAGCAAUAUUACGUUGU,-3.88 ± 0.17,-3.45 ± 0.21
ACAAAGCAAUAUUACGAACC,-0.815 ± 0.21,-1.44 ± 0.19
GUUCAGCAAUAUUACGUAUC,-0.532 ± 0.089,-0.756 ± 0.1
GGCAAGCAAUAUUACGGUUU,-0.376 ± 0.052,0.232 ± 0.069
AUUAAGCAAUAUUACGGUAC,-3.84 ± 0.47,-1.6 ± 0.2
ACCUAGCAAUAUUACGCGUG,-0.901 ± 0.077,-0.11 ± 0.1
UGCAAGCAAUAUUACGGGUU,-2.62 ± 0.095,-1.23 ± 0.093
CGCUAGCAAUAUUACGCGUU,-1.99 ± 0.15,-2.51 ± 0.29
CAGGAGCAAUAUUACGUUCC,-3.33 ± 0.23,-2.04 ± 0.27
UGUGAGCAAUAUUACGCGCG,-1.13 ± 0.43,–
AAGCAGCAAUAUUACGCUGC,-3.47 ± 0.13,-3.05 ± 0.18
ACGAAGCAAUAUUACGAGGU,-3.96 ± 0.22,-3.57 ± 0.22
AUUUAGCAAUAUUACGCUUG,-0.566 ± 0.088,-0.134 ± 0.12
AUGAAGCAAUAUUACGAUGC,-1.95 ± 0.13,-0.813 ± 0.17
UUAGAGCAAUAUUACGACGG,0.111 ± 0.12,-7.81e-05 ± 0.19

Sequence,self-splicing fitness (ln) (30 °C),self-splicing fitness (ln) (37 °C)
GUCUAGCAAUAUUACGAAUC,-1.33 ± 0.19,1.43 ± 0.2
AGGUAGCAAUAUUACGGCUC,-0.672 ± 0.017,-0.185 ± 0.036
GCUUAGCAAUAUUACGCAAU,-0.651 ± 0.14,-1.35 ± 0.13
CACGAGCAAUAUUACGAUCC,–,-1.9 ± 0.47
CACUAGCAAUAUUACGAUUU,-2.4 ± 0.12,-2.2 ± 0.15
GAGCAGCAAUAUUACGGAAU,-3.37 ± 0.22,-2.08 ± 0.2
CAUGAGCAAUAUUACGCUCA,-3.35 ± 0.17,-2.18 ± 0.18
UGUAAGCAAUAUUACGCAUA,-0.865 ± 0.18,-1.69 ± 0.17
GACAAGCAAUAUUACGGUGA,-1.3 ± 0.065,-0.86 ± 0.086
GCGGAGCAAUAUUACGGGUU,-4.22 ± 0.29,-1.49 ± 0.14
UAUUAGCAAUAUUACGCCCG,0.243 ± 0.36,1.09 ± 0.36
AGAGAGCAAUAUUACGAUGU,-2.52 ± 0.41,-2.69 ± 0.36
UUGUAGCAAUAUUACGCUUG,-0.622 ± 0.12,-0.277 ± 0.13
CGAGAGCAAUAUUACGCUUA,-2.49 ± 0.23,-2.13 ± 0.46
GACCAGCAAUAUUACGCGGG,-3.03 ± 0.13,-2.79 ± 0.19
AACUAGCAAUAUUACGAACG,-0.824 ± 0.083,-0.339 ± 0.12
UAUUAGCAAUAUUACGUGGA,-2.75 ± 0.32,-0.0772 ± 0.19
AUAGAGCAAUAUUACGUAUU,-2.46 ± 0.16,-1.1 ± 0.17
UUCCAGCAAUAUUACGAGCA,-1.08 ± 0.098,-0.767 ± 0.13
GCCUAGCAAUAUUACGUAUU,-1.83 ± 0.098,-1.73 ± 0.14
GAAAAGCAAUAUUACGCUUC,-3.71 ± 0.12,-2.77 ± 0.14
AGGGAGCAAUAUUACGCUAG,-2.36 ± 0.31,-0.612 ± 0.41
AAAGAGCAAUAUUACGAGGG,-3.04 ± 0.27,-2.34 ± 0.39
GUUAAGCAAUAUUACGAGUG,-2.69 ± 0.14,-1.84 ± 0.16
GUUCAGCAAUAUUACGGUCG,-0.812 ± 0.099,-0.788 ± 0.15

Sequence,self-splicing fitness (ln) (30 °C),self-splicing fitness (ln) (37 °C)
GAGCAGCAAUAUUACGAAGU,-2.87 ± 0.21,-0.867 ± 0.16
AUCAAGCAAUAUUACGAAAC,-3.16 ± 0.2,-3.17 ± 0.28
CGUGAGCAAUAUUACGGUAA,–,-2.41 ± 0.25
GGAUAGCAAUAUUACGUGGA,-3.31 ± 0.21,-2.47 ± 0.21
CGACAGCAAUAUUACGGCUA,-2.5 ± 0.2,-1.39 ± 0.14
CGUAAGCAAUAUUACGGAGG,-2.16 ± 0.14,-1.57 ± 0.17
GCACAGCAAUAUUACGCCGA,-2.19 ± 0.22,-1.61 ± 0.17
GUGUAGCAAUAUUACGCUCA,-0.291 ± 0.21,0.47 ± 0.33
UAUAAGCAAUAUUACGUAAG,-2.45 ± 0.15,-1.08 ± 0.16
AAAGAGCAAUAUUACGGCAG,-4.02 ± 0.42,-3.07 ± 0.29
UCACAGCAAUAUUACGCGUU,-4 ± 0.21,-2.13 ± 0.17
UUGCAGCAAUAUUACGAUGG,-0.811 ± 0.14,-1.07 ± 0.19
ACAUAGCAAUAUUACGAACC,-1.16 ± 0.13,-1.13 ± 0.2
CAAAAGCAAUAUUACGAGUU,-3.02 ± 0.15,-2.46 ± 0.16
CAAAAGCAAUAUUACGACAC,-3.37 ± 0.19,-1.01 ± 0.15
AAAUAGCAAUAUUACGUAUG,-2.64 ± 0.12,-2.08 ± 0.13
AGGAAGCAAUAUUACGGCCU,-2.44 ± 0.37,-1.5 ± 0.3
AAAUAGCAAUAUUACGCUAG,-1.55 ± 0.13,-1 ± 0.15
AGGUAGCAAUAUUACGAGCC,-0.991 ± 0.021,-0.862 ± 0.037
CGGUAGCAAUAUUACGGGCG,-0.838 ± 0.12,0.0595 ± 0.14
GUAGAGCAAUAUUACGCUAG,-0.754 ± 0.13,0.329 ± 0.21
AGCGAGCAAUAUUACGUUGU,-3.39 ± 0.13,-3.31 ± 0.15
CAAGAGCAAUAUUACGUCUC,-3.6 ± 0.17,-2.73 ± 0.18
UGUAAGCAAUAUUACGGUGC,-3.82 ± 0.35,-2.13 ± 0.26
UGCAAGCAAUAUUACGGGCC,-1.31 ± 0.12,-1.26 ± 0.14

Sequence,self-splicing fitness (ln) (30 °C),self-splicing fitness (ln) (37 °C)
CAUAAGCAAUAUUACGGCAA,-2.52 ± 0.18,-1.61 ± 0.18
GUCCAGCAAUAUUACGGUAU,-0.797 ± 0.052,0.0993 ± 0.064
CUAAAGCAAUAUUACGCAGC,-3.5 ± 0.33,-2.3 ± 0.44
AGUGAGCAAUAUUACGUUGG,-4.42 ± 0.36,-1.98 ± 0.26
UAGGAGCAAUAUUACGCGGC,-2.42 ± 0.39,–
UAGAAGCAAUAUUACGAGGG,-3.17 ± 0.18,-2.62 ± 0.21
CAUAAGCAAUAUUACGGUCU,-2.8 ± 0.3,-1.51 ± 0.2
CCGAAGCAAUAUUACGGCAG,-2.86 ± 0.15,-1.44 ± 0.16
CGAGAGCAAUAUUACGCCAA,-1.49 ± 0.2,-1.99 ± 0.38
AGCCAGCAAUAUUACGAGGG,-2.58 ± 0.15,-2.38 ± 0.17
CUGCAGCAAUAUUACGAUAU,-3.64 ± 0.28,-2.41 ± 0.3
CUCGAGCAAUAUUACGUGCA,-2.2 ± 0.17,-1.01 ± 0.17
CUGUAGCAAUAUUACGGGGG,-4.4 ± 0.37,-2.68 ± 0.31
CUGCAGCAAUAUUACGUCCG,-0.43 ± 0.094,0.136 ± 0.13
CUAAAGCAAUAUUACGACAC,–,-1.88 ± 0.47
CGUUAGCAAUAUUACGGGGC,-2.57 ± 0.15,-3.12 ± 0.28
UUAAAGCAAUAUUACGUAGC,-4.43 ± 0.3,-2.96 ± 0.48
UUUGAGCAAUAUUACGGUGG,-2.98 ± 0.31,–
GUGCAGCAAUAUUACGCAUA,-1.7 ± 0.18,-0.534 ± 0.14
CUGCAGCAAUAUUACGUUCU,-2.88 ± 0.21,-1.88 ± 0.2
CAAAAGCAAUAUUACGCAAC,-2.59 ± 0.16,-2.53 ± 0.27
AGCUAGCAAUAUUACGGUCC,-0.52 ± 0.1,-0.0902 ± 0.14
CCGGAGCAAUAUUACGGCAC,–,-0.904 ± 0.44
